Measured values: patent US20100249383A1, “Novel Ligand Involved In The Transmigration Of Leukocytes Across the Endothelium and Uses Therefor” (The Regents of The University of California and The Burnham …, priority 2001, published 2010)
Where “and” joins values, the source holds several entries; their conditions need not be identical. Identical values can stand only once.

Experiments:
[1] = test system: 0.3 M asialo-COO^− glycopeptide-BSA neoglycoproteins; assay: ELISA binding of purified proteins to immobilized carboxylated bovine lung glycans; details: FIG. 19 or data not shown
Experimental: In additional ELISA experiments, 96-well plates were coated with 0.3 M asialo-COO^− glycopeptide-BSA neoglycoproteins (250 ng/well) for 4 h at 37° C. (control wells had BSA alone) and blocked with 3% BSA in PBS overnight. The wells were then incubated with purified human annexin I or S100A8/A9 complexes (as appropriate), in 10 mM HUES buffer pH 7.5 containing 150 mM NaCl, 5 mM KCl, 1.2 mM MgCl2 and 1.3 mM CaCl2, in the absence or presence of varying concentrations of 0.3 M asialo-COO^− glycopeptides or 0.3 M asialo-CONHMe-glycopeptides for 2 h at room temperature. This was followed by incubation with anti-bovine annexin I antibody or anti-human S100A8 or anti-S100A9 for 2 h at room temperature. Wells were then washed and incubated with alkaline phosphatase conjugated goat anti-mouse IgG, followed by development with p-nitrophenyl phosphate substrate.
In this Example, experiments conducted to assess amphoterin binding to COO^− glycopeptide coated plates was assayed as described earlier for annexin I and S100 proteins. In addition, bound protein was detected using anti-amphoterin. mAbGB3.1 binding to sRAGE was assessed by first coating sRAGE on microtiter wells for 4 h at 37° C. After blocking with 3% BSA in PBS overnight, wells were incubated with mAbGB3.1 in the presence and absence of COO^−or CONHMe-glycopeptide and developed as described above.

[2] = test system: [2-^3H]mannose-labeled CPAE glycoproteins; assay: Precipitation of mannose-labeled glycoproteins and cross-binding; parameters: species or system bovine
Experimental: Calf pulmonary artery endothelial cells (CPAE) cells were labeled with [2-^3H] mannose at 20 μCi/ml for 24 h in alpha MEM containing 10% fetal bovine serum. Cells were harvested by trypsinization, washed thrice in PBS, and lysed in PBS containing protease inhibitors and 0.5% NP40. Protein-rich lysates were prepared by ultrafiltration on YM10 membranes. Purified S100A8/A9 or annexin I proteins were immobilized on Affigel-10, and mixed with the labeled glycoproteins from CPAE cells in 10 mM HEPES buffer pH 7.5 containing 150 mM NaCl, 5 mM KCl, 1.2 mM MgCl2 and 1.3 mM CaCl2 after preclearing the lysates with BSA-Affigel 10. For immunoprecipitations using mAbGB3.1, lysates were precleared with normal mouse IgG-protein G beads and then incubated with Protein G coupled to mAbGB3.1 IgG in PBS. After overnight incubation at 4° C., the individual pellets were washed free of all unbound label until no more counts appeared in the washes, and the radioactivity associated with the pellets was measured.
For cross-binding, label associated with each pellet was first eluted using high salt (5 M MgCl2, which eluted >70% bound label). The eluates were repeatedly desalted on YM10 membranes and resuspended in the respective buffers. Label eluted from mAbGB3.1 gels was mixed with immobilized S100A8/A9 or annexin I and vice versa. Again, after overnight incubation at 4° C., the individual pellets were washed free of all unbound label and counted. […] In comparison, immobilized annexin I precipitated only about 2-3% of mannose labeled glycoproteins from endothelial cells (data not shown).

HUVECs = assay: Surface binding of iodinated S100A8/A9 to endothelial cells; parameters: species or system human
Experimental: Human umbilical vein endothelial cells (HUVECs) were grown in Endothelial Cell growth Medium (Cell Applications) at 37° C. in 5% CO2. Cell staining and Western blotting were performed to confirm expression of mAbGB3.1 antigens. HUVECS at passages 3-4 were used in the binding assays. Purified proteins were radioiodinated using Na^125I and Iodo-Beads Iodinating Reagent as per the manufacturer's protocols. Unbound label was removed on a Sephadex G25 column, followed by concentration of the void volume fractions using Centricon10 concentrators.
Cells grown to confluence in 12 well plates and activated with 1 μM PAF for 4 hr. Activated and unactivated cells were washed with cold HBSS and then incubated with 4 nM to 80 nM ^125I-S100A8/A9 in 1 ml of HBSS, or 20 nM labeled complex in the absence and presence of modulators at 4° C. for 2 h. The reaction was stopped by rapid removal of unbound label, and the cells were washed thrice with cold HBSS. They were solubilized in 1 M NaOH followed by addition of an equal volume of 1 M HCl, and the radioactivity associated with the lysates was measured using a gamma counter. […] Panels 2 and 3 show the results for HUVECs incubated with 20 nM labeled complex in the absence or presence of modulators, in 1 ml of HBSS at 4° C. for 2 hours.

[3] = molecular target: cell surface binding sites on human umbilical vein endothelial cells (HUVECs); assay: binding of 125I-S100A8/A9 to unactivated HUVECs (data not shown)
[4] = molecular target: [2-3H]mannose-labeled CPAE glycoproteins eluted from mAbGB3.1; assay: rebinding to immobilized S100A8/A9 of label eluted from mAbGB3.1 (1,961 cpm added)
[5] = molecular target: [2-3H]mannose-labeled CPAE glycoproteins eluted from mAbGB3.1; assay: rebinding to immobilized S100A8/A9 of label eluted from mAbGB3.1 (4,951 cpm added)
[6] = molecular target: cell surface binding sites on human umbilical vein endothelial cells (HUVECs); assay: competition of 20 nM 125I-S100A8/A9 on PAF-activated HUVECs by unlabeled S100A8/A9
[7] = molecular target: [2-3H]mannose-labeled CPAE glycoproteins; assay: precipitation of [2-3H]mannose-labeled CPAE glycoproteins by S100A8/A9 on Affigel-10 (10,286 cpm added)
[8] = molecular target: [2-3H]mannose-labeled CPAE glycoproteins; assay: precipitation of [2-3H]mannose-labeled CPAE glycoproteins by S100A8/A9 on Affigel-10 (20,386 cpm added)
RAGE = molecular target: T1, RAGE (Bos taurus, UniProt Q28173); assay: Binding assays using ^125I amphoterin on immobilized RAGE; parameters: species or system bovine
T1 construct: from tissue; host or cells: bovine lung (inferred); amphoterin from baculovirus-infected insect cells
T1 sequence (Q28173 23-416): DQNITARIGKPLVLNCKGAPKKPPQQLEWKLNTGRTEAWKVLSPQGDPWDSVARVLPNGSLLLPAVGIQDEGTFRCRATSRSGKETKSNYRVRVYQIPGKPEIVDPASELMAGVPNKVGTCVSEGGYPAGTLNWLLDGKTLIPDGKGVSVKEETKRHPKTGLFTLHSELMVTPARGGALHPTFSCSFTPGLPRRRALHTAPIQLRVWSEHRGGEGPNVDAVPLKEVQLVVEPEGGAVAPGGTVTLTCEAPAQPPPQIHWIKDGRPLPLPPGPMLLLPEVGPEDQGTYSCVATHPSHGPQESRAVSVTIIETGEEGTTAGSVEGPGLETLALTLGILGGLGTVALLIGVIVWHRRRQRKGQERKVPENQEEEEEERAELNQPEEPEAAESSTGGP
Experimental: Amphoterin was radioiodinated using Na ^125I and Iodo-Beads Iodinating Reagent (Pierce) to a specific activity of 5×10^3 cpm/ng protein. Saturation binding experiments were done by a slight modification of the method of Hori et al (Hori at al., J. Biol. Chem., 270:25752-61 [1995]). Briefly, purified RAGE was immobilized on microliter wells and the wells blocked with 3% BSA. Wells were incubated at 4° C. overnight with increasing concentrations of ^125I amphoterin in HBSS containing 0.1% BSA in the presence or absence of desialylated carboxylate-enriched (COO^−) or CONHMe bovine lung glycopeptides, or 20 μg/ml mAbGB3.1 or an unrelated anti-carbohydrate monoclonal antibody, or 100 fold excess of unlabeled amphoterin. Binding was also tested on RAGE deglycosylated by PNGase F under non-denaturing conditions. Wells were washed, bound amphoterin was eluted with 2 M NaCl, and radioactivity was measured using a gamma counter. Non-linear regression analysis was done using the GraphPad Prism program.

[9] = molecular target: [2-3H]mannose-labeled CPAE glycoproteins; assay: precipitation of [2-3H]mannose-labeled CPAE glycoproteins by annexin I on Affigel-10 (data not shown)

## S100A8/A9: heteromeric S100A8/S100A9 complex purified from human neutrophil cytosol
[1]
  binding to immobilized carboxylated vs neutralized glycans: same specificity of binding
[2]; primary binding
  % Bound Radioactivity (mean ± SD): 9% and 8.7 ± 0.5%
[2]; primary binding to mAbGB3.1, eluted label rebinding to S100A8/A9
  % Bound Radioactivity (mean ± SD): 31.5 ± 0.2%
[2]; primary binding to mAbGB3.1, eluted label rebinding to S100A8/A9, listed as S100A8/A9 complex
  % Bound Radioactivity (mean ± SD): about one-third
[2]; primary binding, listed as S100A8/A9 complex
  % Bound Radioactivity (mean ± SD): 9%
HUVECs; unlabeled ligand, 20 nM labeled complex, PAF-activated HUVECs, FIG. 20 Panel B, read-out: half maximal competition of specific binding of ^125I-S100A8/A9
  IC50: ~500 nM

## ^125I-S100A8/A9: purified S100A8/A9 radioiodinated using Na^125I
HUVECs; 4 nM to 80 nM, 4° C. 2 h, FIG. 20 Panel A
  binding on PAF-activated HUVECs: dose-dependent and saturable binding
HUVECs; data not shown
  binding to unactivated cells, less than to PAF-activated cells: 2 fold

B1: purified human S100A8/A9 complex from peripheral blood neutrophils (ligand)
chain 1: MLTELEKALNSIIDVYHKYSLIKGNFHAVYRDDLKKLLETECPQYIRKKGADVWFKELDINTDGAVNFQEFLILVIKMGVAAHKKSHEESHKE
chain 2: TCKMSQLERNIETIINTFHQYSVKLGHPDTLNQGEFKELVRKDLQNFLKKENKNEKVIEHIMEDLDTNADKQLSFEEFIMLMARLTWASHEKMHEGDEGPGHHHKPGLGEGTP
[3]
  fold less binding to unactivated than to PAF-activated cells: 2 fold
[4]
  cpm bound to gel: 615 cpm
[5]
  cpm bound to gel: 1570 cpm
[6]
  IC50: 500 nM
[7]
  cpm bound to gel: 928 cpm
[8]
  cpm bound to gel: 1700 cpm

B2: amphoterin: baculovirus expressed rat amphoterin, neurite growth-promoting protein, ligand of RAGE (protein)
chain: GKGDPKKPRGKMSSYAFFVQTCREEHKKKHPDASVNFSEFSKKCSERWKTMSAKEKGKFEDMAKADKARYEREMKTYIPPKGETKKKFKDPNAPKRPPSAFFLFCSEYRPKIKGEHPGLSIGDVAKKLGEMWNNTAADDKQPYEKKAAKLKEKYEKDIAAYRAKGKPDAAKKGVVKAEKSKKKKEEEDDEEDEEDEEEEEEEEDEDEEEDDDDE
[1]
  binding to immobilized carboxylated vs neutralized glycans: carboxylate dependent manner
RAGE; in presence of soluble COO^− glycopeptides
  Bmax: approximately 34.7±3.7 fmole/well
RAGE; native purified RAGE
  Bmax: approximately 52.7±4.3 fmole/well

B3: recombinant full-length human annexin I (E. coli BL21(DE3), pET23b) (protein)
chain: MAMVSEFLKQAWFIENEEQEYVQTVKSSKGGPGSAVSPYPTFNPSSDVAALHKAIMVKGVDEATIIDILTKRNNAQRQQIKAAYLQETGKPLDETLKKALTGHLEEVVLALLKTPAQFDADELRAAMKGLGTDEDTLIEILASRTNKEIRDINRVYREELKRDLAKDITSDTSGDFRNALLSLAKGDRSEDFGVNEDLADSDARALYEAGERRKGTDVNVFNTILTTRSYPQLRRVFQKYTKYSKHDMNKVLDLELKGDIEKCLTAIVKCATSKPAFFAEKLHQAMKGVGTRHKALIRIMVSRSEIDMNDIKAFYQKMYGISLCQAILDETKGDYEKILVALCGGN
[9]
  % of mannose labeled glycoproteins precipitated: 2 to 3%
